Results as given in US20260250403A1 (BIOCYTOGEN PHARMACEUTICALS BEIJING, published 2026).

T1: dCD40-His (CD40 Protein, Canine, Recombinant (His Tag), Sino Biological Inc., Cat #: 70105-D08H) (dog, UniProt Q7YRL5 21-194)
T1 construct: Bought protein; also called dog CD40; not shown: His tag
T1 sequence (looked up): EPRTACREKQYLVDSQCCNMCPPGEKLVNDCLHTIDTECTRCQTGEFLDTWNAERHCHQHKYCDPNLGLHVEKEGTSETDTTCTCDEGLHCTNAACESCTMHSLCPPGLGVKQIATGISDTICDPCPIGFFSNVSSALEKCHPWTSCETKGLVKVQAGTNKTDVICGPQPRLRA


Tests used:
[1] = molecular target: T2, hCD40-His (Human CD40 protein having a His-Tag, Beijing ACROBiosystems Co. Ltd., Cat #: CD0-H5228) (human, UniProt P25942 21-193); experiment: SPR, Biacore 8K, Protein A chip, CD40-His as analyte, 1:1 Langmuir fit
T2 construct: Bought protein; not shown: His tag
T2 sequence (P25942 21-193 limits assumed): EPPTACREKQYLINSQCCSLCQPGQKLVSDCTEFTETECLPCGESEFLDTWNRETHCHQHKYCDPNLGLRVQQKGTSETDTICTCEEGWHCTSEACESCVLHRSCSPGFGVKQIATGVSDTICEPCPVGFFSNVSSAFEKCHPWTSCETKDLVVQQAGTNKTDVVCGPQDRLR
Method: (§1) Purified anti-CD40 antibodies at concentrations of 1 μg/ml with 1×HBS-EP+ buffer (PH 7.4) were then injected at 1 μl/min for 50 seconds. Dissociation was monitored for 400 seconds. The chip was regenerated after the last injection of each titration with a glycine solution (pH 2.0) at 30 μl/min for 30 seconds.

[2] = molecular target: T3, fasCD40-His (Cynomolgus CD40/TNFRSF5 Protein, His Tag, Beijing ACRO Biosystems Co. Ltd., Cat #: CD0-C52H6) (Macaca fascicularis, UniProt G7PG38 21-193); experiment: as above
T3 construct: Bought protein; also called monkey (Macaca fascicularis) CD40; not shown: His tag
Method: as §1

[3] = molecular target: T1, dCD40-His (CD40 Protein, Canine, …); experiment: as above
Method: as §1

[4] = molecular target: hFcRn-His (FCGRT&B2M Heterodimer Protein, His Tag&Strep II Tag, Beijing ACROBiosystems Co. Ltd., Cat #: FCM-H5286) (human) (UniProt P61769); experiment: SPR, Biacore 8K or T200, Protein A chip, steady state affinity model, pH 6.0; pH 6.0

Row | Kd [1] | koff [1] | kon [1] | Kd [2] | koff [2] | kon [2] | Kd [3] | koff [3] | kon [3] | Kd [4] | Binder
1 | 0.351 nM | 0.000229 s⁻¹ | 654000 M⁻¹ s⁻¹ | 0.301 nM | 0.000297 s⁻¹ | 989000 M⁻¹ s⁻¹ | 5.18 nM | 0.00266 s⁻¹ | 513000 M⁻¹ s⁻¹ |  | 2F8-IgG4-FLAA (antibody, V domains shown, Rest: human IgG4 constant regions with FLAA mutations (F234A and L235A, EU numbering)) VH: EVQLVQSGGGVVQPGRSLRLSCAASGFSFSSYAMHWVRQVPGKGLEWVSVISYDGDNKYHAESVKGRFTISRDNSKNILYLQMNSLRPEDTAVYYCARRGTVTNYYSYSGLDVWGQGTTVTVSS VL: DIQLTQSPLSLPVTPGEPASISCRSSQSLLYSNGKNYLDWYLQKPGQSPQLLIYLASNRASGVPDRFSGSGSGTDFTLKISRVEAEDVGVYFCMQALQTPRTFGQGTKVEIKR
2 | 1.59 nM | 0.000682 s⁻¹ | 429000 M⁻¹ s⁻¹ | 3.35 nM | 0.000907 s⁻¹ | 270000 M⁻¹ s⁻¹ |  |  |  |  | Bleselumab analog (antibody, human IgG4, V domains shown) VH: QLQLQESGPGLLKPSETLSLTCTVSGGSISSPGYYGGWIRQPPGKGLEWIGSIYKSGSTYHNPSLKSRVTISVDTSKNQFSLKLSSVTAADTAVYYCTRPVVRYFGWFDPWGQGTLVTVSS VL: AIQLTQSPSSLSASVGDRVTITCRASQGISSALAWYQQKPGKAPKLLIYDASNLESGVPSRFSGSGSGTDFTLTISSLQPEDFATYYCQQFNSYPTFGQGTKVEIKR
3 | 0.735 nM | 0.000389 s⁻¹ | 529000 M⁻¹ s⁻¹ | 0.495 nM | 0.000265 s⁻¹ | 535000 M⁻¹ s⁻¹ | 32.1 nM | 0.0129 s⁻¹ | 401000 M⁻¹ s⁻¹ | 497 nM | 12B5-IgG4-FLAA (antibody, V domains shown, Rest: human IgG4 constant regions with FLAA mutations (F234A and L235A, EU numbering); copies: 2 + 2) VH: QVQLVQSGPGLVKPSETLSLTCTVSGGSISYYYWSWIRQPPGKGLEWIGHISYSGSTNYNPSLKSRVTISEDTSKKQFSLKLDSVTAADTAVYYCAGGIVGARRGFDFWGQGTLVTVSS VL: EIVMTQSPATLSLSPGERATLSCRASQSVSNNLAWYQQKPGQAPRLLIYDASNRAADIPARFSGSGSGTDFTLTISSLEPEDFAVYYCQQRNNWPPTFGQGTKVEIKR
4 | 1.66 nM | 0.000511 s⁻¹ | 309000 M⁻¹ s⁻¹ | 51.7 nM | 0.0149 s⁻¹ | 288000 M⁻¹ s⁻¹ |  |  |  |  | 6A4-IgG4-FLAA (antibody, V domains shown, Rest: human IgG4 constant regions with FLAA mutations (F234A and L235A, EU numbering)) VH: QVQLVQSGGGLVQPGGSLRLSCAASGFTFSNYVMSWVRQAPGKGLEWVSTIRGSGISTYYTDSVKGRFTTSRDNPKNTLFLQMSSLRAEDTAVYYCAKGIVGATTPFDYWGQGTLVTVSS VL: EIVLTQSPATLSLSPGERATLSCRASQSVRSFLAWYQQKPGQAPRLLIYETSNRATGIPARFSGSGSGTDFTLTISSLEPEDFAVYYCQQRSDWPPTFGQGTKVEIKR
